For one substance, stoichiometry N results are on record in publication PMC11993637.

The target of this experiment is human hormone-sensitive lipase (HSL), adipocyte isoform (human). Kind of experiment: cryo-EM structure.

The substance “human hormone-sensitive lipase (HSL), adipocyte isoform (enzyme)” had a stoichiometry N of 2.
